Measured values from publication PMC10192129, “The thioesterase APT1 is a bidirectional-adjustment redox sensor” (Nature Communications, 2023).
Where “and” joins values, the source holds several entries; their conditions need not be identical. Equal entries are not always repeated.

Columns and labels:
[1] = target: the molecule itself; test: not stated; in vivo in M. truncatula under drought stress (Supplementary Fig. 2a)
[2] = target: the molecule itself; test: nonreducing SDS-PAGE with immunoblot; 6 × His-APT1 proteins after Ni purification from E. coli, no reducing agent; Tris-Tricine SDS-PAGE system
[3] = target: the molecule itself; test: nonreducing capillary electrophoresis immunoassay (Simple Jess) + other: nonreducing SDS-PAGE with immunoblot; root lysates of p35S:APT1-GFP/apt1 plants after 4 mM H2O2 for 15 min to 6 h (also 1 dpi with F. oxysporum); DTT-free buffers, samples not heated, anti-GFP

B1: APT1 in M. truncatula under drought stress (enzyme)
chain: not shown
notes: acyl-protein thioesterase 1 (APT1) of Medicago truncatula; May be the same APT1-GFP as m9 (surmised); source: in vivo in M. truncatula
stoichiometry N [1]: 4

B2: 6 × His-APT1 fusion protein (acyl-protein thioesterase 1, Medicago truncatula) (enzyme)
chain: not shown
notes: acyl-protein thioesterase 1 (APT1, MtAPT1) of Medicago truncatula; cDNA amplified from ecotype A17; cysteines at C20, C22 and C37; The vector pET-30a(+) may add further vector-encoded residues (surmised); also called MtAPT1; pET-30a(+)-His-APT1
stoichiometry N [2]: 2 and 4

B3: APT1-GFP fusion protein (p35S:APT1-GFP) in M. truncatula apt1 roots (enzyme)
chain: not shown
notes: acyl-protein thioesterase 1 (APT1) of Medicago truncatula, cDNA from ecotype A17; Detected with anti-GFP; source: transgenic M. truncatula apt1 mutant roots (p35S:APT1-GFP), in lysate
stoichiometry N [3]: 4
